± gives the standard deviation of the averaged measurements.
Assay: total protein half-life in vivo (active degradation + dilution); higher = more stable protein
[1] = E. coli NCM3722 delta-clpP delta-lon delta-hslV, growth: N-lim chemostat, doubling time 6 h
[2] = E. coli NCM3722 delta-clpP, growth: N-lim chemostat, doubling time 6 h
[3] = E. coli NCM3722 delta-hslV, growth: N-lim chemostat, doubling time 6 h
[4] = E. coli NCM3722 delta-lon, growth: N-lim chemostat, doubling time 6 h
[5] = E. coli NCM3722 delta-smpB, growth: N-lim chemostat, doubling time 6 h
[6] = wild type E. coli NCM3722, growth: C-lim chemostat, doubling time 3 h
[7] = wild type E. coli NCM3722, growth: C-lim chemostat, doubling time 6 h
[8] = wild type E. coli NCM3722, growth: C-lim chemostat, doubling time 12 h
[9] = wild type E. coli NCM3722, growth: N-lim chemostat, doubling time 6 h
[10] = wild type E. coli NCM3722, growth: N-lim chemostat, doubling time 12 h
[11] = wild type E. coli NCM3722, growth: P-lim chemostat, doubling time 6 h
[12] = wild type E. coli NCM3722, growth: P-lim chemostat, doubling time 12 h

Sequence | total protein half-life in vivo [1] | total protein half-life in vivo [2] | total protein half-life in vivo [3] | total protein half-life in vivo [4] | total protein half-life in vivo [5] | total protein half-life in vivo [6] | total protein half-life in vivo [7] | total protein half-life in vivo [8] | total protein half-life in vivo [9] | total protein half-life in vivo [10] | total protein half-life in vivo [11] | total protein half-life in vivo [12]
MSERLSITPLGPYIGAQISGADLTRPLSDNQFEQLYHAVLRHQVVFLRDQAITPQQQRALAQRFGELHIHPVYPHAEGVDEIIVLDTHNDNPPDNDNWHTDVTFIETPPAGAILAAKELPSTGGDTLWTSGIAAYEALSVPFRQLLSGLRAEHDFRKSFPEYKYRKTEEEHQRWREAVAKNPPLLHPVVRTHPVSGKQALFVNEGFTTRIVDVSEKESEALLSFLFAHITKPEFQVRWRWQPNDIAIWDNRVTQHYANADYLPQRRIMHRATILGDKPFYRAG | 4.38 ± 0.24 h | 4.17 ± 3.1 h | 2.39 ± 0.83 h | 2.1 h | 2.36 ± 0.22 h | 2.88 ± 0.46 h | 4.02 h | 5.19 ± 0.73 h | 1.58 h | 2.31 ± 0.34 h | 4.3 h | 7.36 ± 0.57 h
MSETAKKVIVGMSGGVDSSVSAWLLQQQGYQVEGLFMKNWEEDDGEEYCTAAADLADAQAVCDKLGIELHTVNFAAEYWDNVFELFLAEYKAGRTPNPDILCNKEIKFKAFLEFAAEDLGADYIATGHYVRRADVDGKSRLLRGLDSNKDQSYFLYTLSHEQIAQSLFPVGELEKPQVRKIAEDLGLVTAKKKDSTGICFIGERKFREFLGRYLPAQPGKIITVDGDEIGEHQGLMYHTLGQRKGLGIGGTKEGTEEPWYVVDKDVENNILVVAQGHEHPRLMSVGLIAQQLHWVDREPFTGTMRCTVKTRYRQTDIPCTVKALDDDRIEVIFDEPVAAVTPGQSAVFYNGEVCLGGGIIEQRLPLPV | 4.81 ± 0.17 h | 4.73 ± 0.56 h | 4.73 ± 0.06 h | 5.33 ± 0.43 h | 4.71 ± 0.32 h | 2.89 ± 0.46 h | 7.28 ± 0.86 h | 10.4 ± 1.7 h | 4.77 ± 0.39 h | 8.691 ± 0.075 h | 5.5 ± 0.061 h | 12 ± 1.4 h
MSEVEFSHEYWMRHALTLAKRAWDEREVPVGAVLVHNNRVIGEGWNRPIGRHDPTAHAEIMALRQGGLVMQNYRLIDATLYVTLEPCVMCAGAMIHSRIGRVVFGARDAKTGAAGSLMDVLHHPGMNHRVEITEGILADECAALLSDFFRMRRQEIKAQKKAQSSTD | 5.35 ± 0.49 h |  | > 8 h | 4.63 h |  |  |  |  |  |  | > 8 h | 10.7 ± 0.33 h
MSFDIAKYPTLALVDSTQELRLLPKESLPKLCDELRRYLLDSVSRSSGHFASGLGTVELTVALHYVYNTPFDQLIWDVGHQAYPHKILTGRRDKIGTIRQKGGLHPFPWRGESEYDVLSVGHSSTSISAGIGIAVAAEKEGKNRRTVCVIGDGAITAGMAFEAMNHAGDIRPDMLVILNDNEMSISENVGALNNHLAQLLSGKLYSSLREGGKKVFSGVPPIKELLKRTEEHIKGMVVPGTLFEELGFNYIGPVDGHDVLGLITTLKNMRDLKGPQFLHIMTKKGRGYEPAEKDPITFHAVPKFDPSSGCLPKSSGGLPSYSKIFGDWLCETAAKDNKLMAITPAMREGSGMVEFSRKFPDRYFDVAIAEQHAVTFAAGLAIGGYKPIVAIYSTFLQRAYDQVLHDVAIQKLPVLFAIDRAGIVGADGQTHQGAFDLSYLRCIPEMVIMTPSDENECRQMLYTGYHYNDGPSAVRYPRGNAVGVELTPLEKLPIGKGIVKRRGEKLAILNFGTLMPEAAKVAESLNATLVDMRFVKPLDEALILEMAASHEALVTVEENAIMGGAGSGVNEVLMAHRKPVPVLNIGLPDFFIPQGTQEEMRAELGLDAAGMEAKIKAWLA | 5.82 ± 0.5 h | 6.08 ± 0.29 h | 5.79 ± 0.18 h | 5.92 ± 0.57 h | 5.36 ± 0.085 h | 3.01 ± 0.11 h | 6.16 ± 0.82 h | 10.7 ± 1.4 h | 5.82 ± 0.11 h | 13.6 ± 0.63 h | 6.55 ± 0.58 h | 12.6 ± 0.56 h
MSFDLIIKNGTVILENEARVVDIAVKGGKIAAIGQDLGDAKEVMDASGLVVSPGMVDAHTHISEPGRSHWEGYETGTRAAAKGGITTMIEMPLNQLPATVDRASIELKFDAAKGKLTIDAAQLGGLVSYNIDRLHELDEVGVVGFKCFVATCGDRGIDNDFRDVNDWQFFKGAQKLGELGQPVLVHCENALICDELGEEAKREGRVTAHDYVASRPVFTEVEAIRRVLYLAKVAGCRLHVCHVSSPEGVEEVTRARQEGQDVTCESCPHYFVLDTDQFEEIGTLAKCSPPIRDLENQKGMWEKLFNGEIDCLVSDHSPCPPEMKAGNIMKAWGGIAGLQSCMDVMFDEAVQKRGMSLPMFGKLMATNAADIFGLQQKGRIAPGKDADFVFIQPNSSYVLTNDDLEYRHKVSPYVGRTIGARITKTILRGDVIYDIEQGFPVAPKGQFILKHQQ | 4.05 h |  |  | 3.35 h |  | 1.23 ± 0.55 h | 2.5 ± 0.8 h | 2.38 ± 0.29 h |  |  |  | 5.33 h
MSFELPALPYAKDALAPHISAETIEYHYGKHHQTYVTNLNNLIKGTAFEGKSLEEIIRSSEGGVFNNAAQVWNHTFYWNCLAPNAGGEPTGKVAEAIAASFGSFADFKAQFTDAAIKNFGSGWTWLVKNSDGKLAIVSTSNAGTPLTTDATPLLTVDVWEHAYYIDYRNARPGYLEHFWALVNWEFVAKNLAA [P0AGD3] | 5.3 ± 0.47 h | 5.56 ± 1.2 h | 4.773 ± 0.02 h | 6.2 ± 1.1 h | 4.8 ± 0.58 h | 3.18 ± 0.084 h | 5.96 ± 0.084 h | 11.6 ± 0.35 h | 5.07 ± 0.39 h | 9.76 ± 0.58 h | 5.95 ± 0.27 h | 12 ± 0.36 h
MSFFHASQRDALNQSLAEVQGQINVSFEFFPPRTSEMEQTLWNSIDRLSSLKPKFVSVTYGANSGERDRTHSIIKGIKDRTGLEAAPHLTCIDATPDELRTIARDYWNNGIRHIVALRGDLPPGSGKPEMYASDLVTLLKEVADFDISVAAYPEVHPEAKSAQADLLNLKRKVDAGANRAITQFFFDVESYLRFRDRCVSAGIDVEIIPGILPVSNFKQAKKFADMTNVRIPAWMAQMFDGLDDDAETRKLVGANIAMDMVKILSREGVKDFHFYTLNRAEMSYAICHTLGVRPGL [P0AEZ1] | 3.64 ± 0.65 h | 3.18 ± 0.53 h | 2.96 ± 0.52 h | 3.54 ± 0.14 h | 3.16 ± 0.31 h | 2.99 ± 0.18 h | 4.97 ± 0.25 h | 8.59 ± 0.26 h | 3.02 ± 0.1 h | 4.47 ± 0.053 h | 5.51 ± 0.12 h | 10.7 ± 0.34 h
